The target in assay [1] is T1, cynoSIRPα (NP_001271679), Extracellular Domain + His-Tag (cynomolgus monkey).
T1 construct: also called CySIRPα NP_001271679; not shown: His-Tag
T1 chain: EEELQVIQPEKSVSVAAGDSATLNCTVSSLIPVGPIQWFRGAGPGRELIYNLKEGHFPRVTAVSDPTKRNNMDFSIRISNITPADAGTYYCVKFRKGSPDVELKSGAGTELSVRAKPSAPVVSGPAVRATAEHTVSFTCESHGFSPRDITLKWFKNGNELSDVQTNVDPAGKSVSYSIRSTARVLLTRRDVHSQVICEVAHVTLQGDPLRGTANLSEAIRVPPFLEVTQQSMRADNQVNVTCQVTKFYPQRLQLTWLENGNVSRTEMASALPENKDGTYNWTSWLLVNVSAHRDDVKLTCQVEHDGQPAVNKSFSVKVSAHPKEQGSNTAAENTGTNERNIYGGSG
Briefly: SPR, antibody captured on Protein A/G, ECD-His analyte, steady-state fit. How it is done:
(§1) The binding kinetics of anti-SIRPα antibodies to various SIRPα analytes are determined by surface plasmon resonance (SPR) using a Biacore 8K+(Cytiva). 1×HBS-EP+(Cytiva) is used as running buffer and for all the dilutions unless stated otherwise. The Series S CM5 sensorchip is activated with a 1:1 mixture of 0.1 M NHS (N-hydroxysuccinimide) and 0.4 M EDC (1-Ethyl-3-(3-dimethylaminopropyl) carbodiimide hydrochloride) for 420 seconds at a flow rate of 10 μl/min and immobilized with Protein A/G (Thermo Scientific, 10 μg/ml in 10 mM acetate pH 4.5) for 420 seconds at a flowrate of 10 μl/min resulting in approximately 3000 RU of Protein A/G on the surface. The sensorchip is then deactivated with 1 M ethanolamine HCl pH 8.5 for 420 seconds at a flowrate of 10 μl/min.
(§2) Antibodies (approximately 1 ug/ml) are captured on the Protein A/G surface for 60 seconds at a flowrate of 10 μl/min resulting in capture levels of approximately 240 RU. Dilutions of each SIRP protein (Extracellular Domain+His-Tag, with the concentrations as indicated) are injected as analytes over the captured antibody for 300 seconds of association at a flowrate of 30 μl/min, followed by a dissociation for 600 seconds.
(§3) The above procedures are used to measure binding properties of antibodies of the present disclosure. For each analyte used, the highest concentration was as indicated in Example 3 (see Table 36).
For orientation: SPR reads the build-up and loss of mass on a sensor chip optically.

The target in assay [2] is T2, cynoSIRPα (XP_015313155), Extracellular Domain + His-Tag (cynomolgus monkey).
T2 construct: also called CySIRPα XP_015313155; not shown: His-Tag
T2 chain: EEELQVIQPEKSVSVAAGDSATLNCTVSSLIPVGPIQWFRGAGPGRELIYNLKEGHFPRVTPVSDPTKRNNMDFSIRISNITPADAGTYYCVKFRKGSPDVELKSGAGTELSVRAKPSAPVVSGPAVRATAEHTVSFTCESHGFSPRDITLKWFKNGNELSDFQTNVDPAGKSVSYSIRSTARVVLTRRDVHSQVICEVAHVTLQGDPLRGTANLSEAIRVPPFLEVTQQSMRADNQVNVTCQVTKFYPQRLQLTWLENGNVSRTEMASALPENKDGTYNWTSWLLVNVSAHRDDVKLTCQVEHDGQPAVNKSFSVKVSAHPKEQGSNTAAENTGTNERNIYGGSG
The assay is described as above. As for the experimental part: as §1, §2, §3

Assay [3] deals with T3, cynoSIRPα (EGM_02252), Extracellular Domain + His-Tag (cynomolgus monkey).
T3 construct: also called CySIRPα EGM_02252; not shown: His-Tag
T3 chain: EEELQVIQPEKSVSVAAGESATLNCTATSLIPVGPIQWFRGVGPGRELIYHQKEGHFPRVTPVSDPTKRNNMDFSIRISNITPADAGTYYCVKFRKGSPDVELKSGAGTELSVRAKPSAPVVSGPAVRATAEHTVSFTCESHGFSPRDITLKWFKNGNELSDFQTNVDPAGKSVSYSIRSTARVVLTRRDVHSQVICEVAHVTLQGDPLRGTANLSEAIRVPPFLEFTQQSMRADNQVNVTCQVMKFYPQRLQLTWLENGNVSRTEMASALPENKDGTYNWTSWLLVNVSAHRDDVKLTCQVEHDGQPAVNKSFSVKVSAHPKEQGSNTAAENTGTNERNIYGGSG
The description is as above. How it is done: as §1, §2, §3

For assay [4], the target named is T4, Human SIRPαV1 (NP_542970.1), Extracellular Domain + His-Tag (human, UniProt P78324 31-373).
T4 construct: also called huSIRPαV1; hSIRPαV1; not shown: His-Tag
T4 sequence (P78324 other isoform, or with tags, fused parts or gaps): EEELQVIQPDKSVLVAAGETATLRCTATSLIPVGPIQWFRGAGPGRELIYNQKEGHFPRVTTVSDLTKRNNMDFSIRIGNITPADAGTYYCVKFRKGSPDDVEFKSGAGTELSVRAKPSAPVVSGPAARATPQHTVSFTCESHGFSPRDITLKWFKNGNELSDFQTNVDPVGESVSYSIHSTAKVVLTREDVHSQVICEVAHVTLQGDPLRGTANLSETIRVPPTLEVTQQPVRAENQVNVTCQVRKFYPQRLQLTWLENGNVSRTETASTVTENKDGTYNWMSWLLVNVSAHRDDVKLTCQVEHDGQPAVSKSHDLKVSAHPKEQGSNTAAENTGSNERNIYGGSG
Briefly: SPR, antibody captured on Protein A/G, ECD-His analyte, 1:1 fit. The essentials: (§4)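 Biacore 8K+ at HBS-EP+, with antibodies (~1 ug/ml) captured on Protein A/G CM5 surface to ~240 RU. SIRPα ECD-His analyte dilutions injected at 30 μl/min for 300 s association, 600 s dissociation.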

For assay [5], the target named is T5, Human SIRPαV2 (CAA71403.1), Extracellular Domain + His-Tag (human, UniProt P78324 31-373).
T5 construct: also called huSIRPαV2; hSIRPαV2; not shown: His-Tag
T5 sequence (P78324 other isoform, or with tags, fused parts or gaps): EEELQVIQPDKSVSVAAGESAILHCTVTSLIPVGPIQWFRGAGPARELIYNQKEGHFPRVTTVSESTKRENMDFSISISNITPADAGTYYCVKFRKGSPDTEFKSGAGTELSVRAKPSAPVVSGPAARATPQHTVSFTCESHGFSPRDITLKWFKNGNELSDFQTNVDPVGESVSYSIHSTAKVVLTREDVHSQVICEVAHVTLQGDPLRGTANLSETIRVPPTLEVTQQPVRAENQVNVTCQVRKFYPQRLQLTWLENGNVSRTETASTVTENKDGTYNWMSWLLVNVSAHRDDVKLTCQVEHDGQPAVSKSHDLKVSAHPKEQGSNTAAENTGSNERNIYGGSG
The assay is described as above. The essentials:
as §4

This passage reports Kd, koff and kon results from US20230012273A1 (Boehringer Ingelheim, published 2023).

B1: Antibody A1 (antibody, human IgG1, kappa, L234A L235A, V domains shown)
VH: EVQLVESGGGLVQPGGSLRLSCAASGFTLSSYDMHWVRQAPGKGLEWVSAIGTAGDTYYTGSVKGRFTISRENAKNSLYLQMNSLRADDTAVYYCVRGGVWDDAFDIWGQGTMVTVSS
VL: DIQMTQSPSSLSASVGDRVTITCRASQGINNYAAWFQQKPGKAPKSLIYTASSLHSGVPSKFSGSGSGTDFTLTISSLQPEDFATYYCQQYVSYPYTFGQGTKLEIKR
With B1, the Kd (in general, the equilibrium constant for the complex coming apart) in assay [1] stood at 780 nM; in assay [2], 427 nM; in assay [3], 523 nM; in assay [4] it was 8.6 nM; in assay [5], 18.6 nM. Besides, the koff (as a rule, the rate constant with which the complex falls apart) was 0.00625 s⁻¹ in assay [4] and 0.0162 s⁻¹ in assay [5]. The kon – broadly, the second-order rate constant of association – came out at 727000 M⁻¹ s⁻¹ in assay [4] and 869000 M⁻¹ s⁻¹ in assay [5].

B2: Antibody A6 (antibody, human IgG1, kappa, L234A L235A, V domains shown)
VH: EVQLVESGGGLVQPGGSLRLSCAASGFTLSSYDMHWVRQAPGKGLEWVSAIGTAGDTYYTGSVKGRFTISRENAKNSLYLQMNSLRAEDTAVYYCVRGGVWDDAFDIWGQGTMVTVSS
VL: DIQMTQSPSSLSASVGDRVTITCRASQGINNYAAWFQQKPGKAPKSLIYTASSLHSGVPSKFSGSGSGTDFTLTISSLQPEDFATYYCQQYVSYPYTFGQGTKLEIKR
Turning to B2, the Kd in assay [1] was determined as 684 nM; in assay [2] it was 420 nM; in assay [3] it was 521 nM; in assay [4], 8.28 nM; in assay [5], 18.1 nM. Also, the koff in assay [4] turned out to be 0.00634 s⁻¹; in assay [5], 0.0171 s⁻¹. Further, the kon in assay [4] is 766000 M⁻¹ s⁻¹; in assay [5], 947000 M⁻¹ s⁻¹.

B3: Antibody A7 (antibody, human IgG1, kappa, L234A L235A, V domains shown)
VH: EVQLVESGGGLVQPGGSLRLSCAASGFTLSSYDMHWVRQATGKGLEWVSAIGTAGDTYYTGSVKGRFTISRENAKNSLYLQMNSLRAGDTAVYYCVRGGVWDDAFDIWGQGTMVTVSS
VL: DIQMTQSPSSLSASVGDRVTITCRASQGINNYAAWFQQKPGKAPKSLIYTASSLHSGVPSKFSGSGSGTDFTLTISSLQPEDFATYYCQQYVSYPYTFGQGTKLEIKR
With B3, the Kd in assay [1] stood at 741 nM; in assay [2], 466 nM; in assay [3], 588 nM; in assay [4] it was 9.38 nM; in assay [5], 20.4 nM. The figures for the koff in assay [4] and in assay [5] were 0.00672 s⁻¹ and 0.019 s⁻¹, respectively. Moreover, the kon in assay [4] was determined as 716000 M⁻¹ s⁻¹; in assay [5], 933000 M⁻¹ s⁻¹.

B4: Antibody A5 (antibody, human IgG1, kappa, L234A L235A, V domains shown)
VH: EVQLVESGGGLVQPGGSLRLSCAASGFTLSSYDMHWVRQAPGKGLEWVSAIGTAGDTYYTGSVKGRFTISRENAKNSLYLQMNSLRASDTAVYYCVRGGVWDDAFDIWGQGTMVTVSS
VL: DIQMTQSPSSLSASVGDRVTITCRASQGINNYAAWFQQKPGKAPKSLIYTASSLHSGVPSKFSGSGSGTDFTLTISSLQPEDFATYYCQQYVSYPYTFGQGTKLEIKR
For the molecule B4, the Kd in assay [1] came to 665 nM; in assay [2] it was 415 nM; in assay [3] it was 517 nM; in assay [4], 8.75 nM; in assay [5], 17.8 nM. The koff in assay [4] is 0.00598 s⁻¹; in assay [5], 0.0162 s⁻¹. Moreover, the kon in assay [4] was 684000 M⁻¹ s⁻¹; in assay [5] it was 909000 M⁻¹ s⁻¹.

B5: Antibody A10 (antibody, human IgG1, kappa, L234A L235A)
heavy: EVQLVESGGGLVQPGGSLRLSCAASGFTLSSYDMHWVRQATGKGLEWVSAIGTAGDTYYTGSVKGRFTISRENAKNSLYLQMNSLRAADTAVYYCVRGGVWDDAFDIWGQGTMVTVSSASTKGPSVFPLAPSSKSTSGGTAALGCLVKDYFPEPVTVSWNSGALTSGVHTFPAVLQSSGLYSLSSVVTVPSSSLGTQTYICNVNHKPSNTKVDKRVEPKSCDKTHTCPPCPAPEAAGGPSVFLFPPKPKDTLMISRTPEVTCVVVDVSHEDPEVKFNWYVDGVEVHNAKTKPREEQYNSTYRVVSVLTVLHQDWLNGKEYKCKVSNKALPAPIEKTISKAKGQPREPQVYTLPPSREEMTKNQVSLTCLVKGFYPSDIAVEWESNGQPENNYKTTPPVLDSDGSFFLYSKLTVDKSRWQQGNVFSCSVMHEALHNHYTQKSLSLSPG
light: DIQMTQSPSSLSASVGDRVTITCRASQDINNYLAWFQQKPGKAPKSLIYTASSLHSGVPSKFSGSGSGTDFTLTISSLQPEDFATYYCQQYVSYPYTFGQGTKLEIKRTVAAPSVFIFPPSDEQLKSGTASVVCLLNNFYPREAKVQWKVDNALQSGNSQESVTEQDSKDSTYSLSSTLTLSKADYEKHKVYACEVTHQGLSSPVTKSFNRGEC
As to B5, the results for the Kd in assay [1], in assay [2] and in assay [3] were 388 nM, 203 nM and 282 nM, respectively.

B6: Antibody A2 (antibody, human IgG1, kappa, L234A L235A, V domains shown)
VH: EVQLVESGGGLVQPGGSLRLSCAASGFTLSSYDMHWVRQATGKGLEWVSAIGTAGDTYYTGSVKGRFTISRENAKNSLYLQMNSLRAADTAVYYCVRGGVWDDAFDIWGQGTMVTVSS
VL: DIQMTQSPSSLSASVGDRVTITCRASQGINNYAAWFQQKPGKAPKSLIYTASSLHSGVPSKFSGSGSGTDFTLTISSLQPEDFATYYCQQYVSYPYTFGQGTKLEIKR
Regarding B6, the Kd in assay [1] came to 887 nM; in assay [2] it was 469 nM; in assay [3], 556 nM; in assay [4], 9.39 nM; in assay [5], 20.9 nM. The koff amounted to 0.00685 s⁻¹ in assay [4] and 0.0184 s⁻¹ in assay [5]. The results for the kon in assay [4] and in assay [5] were 729000 M⁻¹ s⁻¹ and 883000 M⁻¹ s⁻¹, respectively.

B7: Antibody A3 (antibody, human IgG1, kappa, L234A L235A, V domains shown)
VH: EVQLVESGGGLVQPGGSLRLSCAASGFTLSSYDMHWVRQATGKGLEWVSAIGTAGDTYYTGSVKGRFTISRENAKNSLYLQMNSLRASDTAVYYCVRGGVWDDAFDIWGQGTMVTVSS
VL: DIQMTQSPSSLSASVGDRVTITCRASQGINNYAAWFQQKPGKAPKSLIYTASSLHSGVPSKFSGSGSGTDFTLTISSLQPEDFATYYCQQYVSYPYTFGQGTKLEIKR
Regarding B7, the Kd in assay [1] is 857 nM; in assay [2], 480 nM; in assay [3], 560 nM; in assay [4], 9.06 nM; in assay [5] it was 19.6 nM. Also, the results for the koff in assay [4] and in assay [5] were 0.00661 s⁻¹ and 0.0178 s⁻¹, respectively. In addition, the on-rate (kon) in assay [4] came to 730000 M⁻¹ s⁻¹; in assay [5], 907000 M⁻¹ s⁻¹.

B8: Antibody A4 (antibody, human IgG1, kappa, L234A L235A, V domains shown)
VH: EVQLVESGGGLVQPGGSLRLSCAASGFTLSSYDMHWVRQAPGKGLEWVSAIGTAGDTYYTGSVKGRFTISRENAKNSLYLQMNSLRAADTAVYYCVRGGVWDDAFDIWGQGTMVTVSS
VL: DIQMTQSPSSLSASVGDRVTITCRASQGINNYAAWFQQKPGKAPKSLIYTASSLHSGVPSKFSGSGSGTDFTLTISSLQPEDFATYYCQQYVSYPYTFGQGTKLEIKR
Turning to B8, the Kd stood at 669 nM in assay [1], 420 nM in assay [2] and 488 nM in assay [3].

B9: Antibody A11 (antibody, human IgG4 S228P, kappa)
heavy: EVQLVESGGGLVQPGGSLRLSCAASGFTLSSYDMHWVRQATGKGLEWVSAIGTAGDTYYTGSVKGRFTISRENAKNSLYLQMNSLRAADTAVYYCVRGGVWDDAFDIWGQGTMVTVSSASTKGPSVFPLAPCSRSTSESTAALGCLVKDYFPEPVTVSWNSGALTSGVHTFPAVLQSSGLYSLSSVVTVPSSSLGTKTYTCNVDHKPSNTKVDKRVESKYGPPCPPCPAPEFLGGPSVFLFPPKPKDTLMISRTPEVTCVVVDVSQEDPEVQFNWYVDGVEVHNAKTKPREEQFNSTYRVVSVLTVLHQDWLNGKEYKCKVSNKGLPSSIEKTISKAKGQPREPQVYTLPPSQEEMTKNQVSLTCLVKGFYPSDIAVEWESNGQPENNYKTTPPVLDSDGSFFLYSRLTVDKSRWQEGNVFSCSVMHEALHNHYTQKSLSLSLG
light: DIQMTQSPSSLSASVGDRVTITCRASQDINNYLAWFQQKPGKAPKSLIYTASSLHSGVPSKFSGSGSGTDFTLTISSLQPEDFATYYCQQYVSYPYTFGQGTKLEIKRTVAAPSVFIFPPSDEQLKSGTASVVCLLNNFYPREAKVQWKVDNALQSGNSQESVTEQDSKDSTYSLSSTLTLSKADYEKHKVYACEVTHQGLSSPVTKSFNRGEC
As to B9, the Kd in assay [1] turned out to be 410 nM; in assay [2] it was 204 nM; in assay [3], 298 nM.
